Experimental data reported in patent US20150119341A1.
pKi: −log10 of the molar value. [ ]: non-standard residue; d: D form. Nle = CCCC[C@H](N)C(=O)O

What was measured:
[1] = molecular target: recombinant human melanocortin-4 receptor (hMCR-4) in membrane homogenates of HEK-293 cells (human) (UniProt P32245); test: competitive inhibition of [I125]-NDP-alpha-MSH, hMCR-4 HEK-293 membranes
[2] = molecular target: recombinant human melanocortin-1 receptor (hMCR-1a) in membrane homogenates of HEK-293 cells (human) (UniProt Q01726); test: competitive inhibition of [I125]-NDP-alpha-MSH, hMCR-1 HEK-293 membranes
Sequence of recombinant human melanocortin-1 receptor (hMCR-1a) in membrane homogenates of HEK-293 cells (human) (Q01726 whole entry): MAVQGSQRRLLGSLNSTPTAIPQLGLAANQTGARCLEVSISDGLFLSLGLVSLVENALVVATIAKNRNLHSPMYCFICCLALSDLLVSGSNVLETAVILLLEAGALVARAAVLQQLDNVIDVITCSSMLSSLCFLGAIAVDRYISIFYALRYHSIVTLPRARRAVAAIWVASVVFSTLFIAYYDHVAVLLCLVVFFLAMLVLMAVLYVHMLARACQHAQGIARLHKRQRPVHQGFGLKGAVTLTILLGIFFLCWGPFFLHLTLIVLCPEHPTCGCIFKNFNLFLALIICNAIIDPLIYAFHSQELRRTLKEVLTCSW

Sequence of recombinant human melanocortin-4 receptor (hMCR-4) in membrane homogenates of HEK-293 cells (human) (P32245 whole entry): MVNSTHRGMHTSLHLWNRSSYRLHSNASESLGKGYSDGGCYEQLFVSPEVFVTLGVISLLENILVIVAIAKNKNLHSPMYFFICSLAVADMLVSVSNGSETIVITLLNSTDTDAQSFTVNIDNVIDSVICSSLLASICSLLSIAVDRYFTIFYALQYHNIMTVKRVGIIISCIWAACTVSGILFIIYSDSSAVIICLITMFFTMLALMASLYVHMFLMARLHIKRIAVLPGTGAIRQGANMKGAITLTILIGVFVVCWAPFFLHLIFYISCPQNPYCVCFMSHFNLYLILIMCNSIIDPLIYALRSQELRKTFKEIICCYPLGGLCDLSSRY

Substance	pKi [1]	pKi [2]
Ac-[Nle][dF]RAW-NH2	5.15	5.89
Ac-[Nle]AH[dF]R[dP][dW]-NH2	5.00	7.70
